Reference: US20240141072A1 (published 2024)
Residue numbers refer to the chain shown, from its start.

T1: biotinylated human DLL3 protein expressed as a human IgG1 fusion protein (human, UniProt Q9NYJ7 27-492, limits assumed, biotinylated)
T1 sequence: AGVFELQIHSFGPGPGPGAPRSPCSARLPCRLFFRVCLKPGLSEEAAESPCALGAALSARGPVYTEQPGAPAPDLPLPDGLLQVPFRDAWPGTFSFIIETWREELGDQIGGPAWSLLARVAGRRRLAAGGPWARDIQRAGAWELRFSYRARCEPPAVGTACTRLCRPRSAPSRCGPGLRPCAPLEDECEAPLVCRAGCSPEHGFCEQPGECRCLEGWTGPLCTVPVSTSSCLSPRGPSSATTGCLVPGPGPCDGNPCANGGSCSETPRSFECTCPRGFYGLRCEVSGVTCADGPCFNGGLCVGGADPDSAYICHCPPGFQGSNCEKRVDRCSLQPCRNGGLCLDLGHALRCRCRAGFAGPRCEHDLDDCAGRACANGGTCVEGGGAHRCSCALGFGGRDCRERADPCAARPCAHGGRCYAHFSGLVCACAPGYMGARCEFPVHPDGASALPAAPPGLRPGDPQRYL

B1: 3F03 anti-DLL3 trispecific protein (other)
chain: EVQLVESGGGLVQPGGSLTLSCAASGSSVSFLSMAWYRQAPGKKRELVAGISADGSTDYIDSVKGRFTISRDNAKNSVYLQMNSLRAEDTAVYYCYAYRWRTRYTYWGQGTLVTVSS
notes: not shown: linker 1808, anti-albumin sdAb, linker 1808, anti-CD3 fragment, His6 1819
B2: 3D03 anti-DLL3 trispecific protein (other)
chain: B1 chain with S30V, T57M
notes: as for B1
B3: 3A010 anti-DLL3 trispecific protein (other)
chain: B1 chain with S28R, D58L, R101T, Y104R
notes: as for B1
B4: 3A01 anti-DLL3 trispecific protein (other)
chain: B1 chain with S30K, R101T, T102R
notes: as for B1
B5: 3F08 anti-DLL3 trispecific protein (other)
chain: B1 chain with S28R, D58L, R101H
notes: as for B1
B6: 3E04 anti-DLL3 trispecific protein (other)
chain: B1 chain with S30H, A53R, R101T, T105R
notes: as for B1
B7: 3D08 anti-DLL3 trispecific protein (other)
chain: B1 chain with S30R, D54N, R101T, T102N
notes: as for B1
B8: 3C011 anti-DLL3 trispecific protein (other)
chain: B1 chain with S30R, D54H
notes: as for B1
B9: 3B01 anti-DLL3 trispecific protein (other)
chain: B1 chain with A53G, R101T
notes: as for B1
B10: 3D011 anti-DLL3 trispecific protein (other)
chain: B1 chain with F31R, T57R, R101T, T105K
notes: as for B1
B11: 3B02 anti-DLL3 trispecific protein (other)
chain: B1 chain with S30Q, D61N
notes: as for B1
B12: 3F011 anti-DLL3 trispecific protein (other)
chain: B1 chain with A53T
notes: as for B1
B13: 3F05 anti-DLL3 trispecific protein (other)
chain: B1 chain with S28K, A53T, R101T, Y104R
notes: as for B1
B14: 3F06 anti-DLL3 trispecific protein (other)
chain: B1 chain with S28R, D58S, R101A
notes: as for B1
B15: 3G09 anti-DLL3 trispecific protein (other)
chain: B1 chain with F31V, D61G, R101T, Y104T
notes: as for B1
B16: 3A03 anti-DLL3 trispecific protein (other)
chain: B1 chain with S28R, A53R, R101T, Y104R
notes: as for B1
B17: 3B07 anti-DLL3 trispecific protein (other)
chain: B1 chain with S28R, D58T, R101T
notes: as for B1
B18: 3C05 anti-DLL3 trispecific protein (other)
chain: B1 chain with A23V, S27T, D58T, R101T, Y104R
notes: as for B1
B19: 3G06 anti-DLL3 trispecific protein (other)
chain: B1 chain with S30K, D58L, R101T, Y104R
notes: as for B1
B20: 3C06 anti-DLL3 trispecific protein (other)
chain: B1 chain with S27T, M34I, D61A
notes: as for B1
B21: 3G01 anti-DLL3 trispecific protein (other)
chain: B1 chain with D58L, R101T, T105A
notes: as for B1
B22: 3F09 anti-DLL3 trispecific protein (other)
chain: B1 chain with S30R, A53R, R101G
notes: as for B1
B23: 3D010 anti-DLL3 trispecific protein (other)
chain: B1 chain with V29K, D58S, R101T
notes: as for B1
B24: 3C02 anti-DLL3 trispecific protein (other)
chain: B1 chain with S30R, D58I
notes: as for B1
B25: 3B04 anti-DLL3 trispecific protein (other)
chain: B1 chain with S28N, D54R, R99H, R101T
notes: as for B1
B26: 3B06 anti-DLL3 trispecific protein (other)
chain: B1 chain with S27K, A53K, R101T
notes: as for B1
B27: 3B010 anti-DLL3 trispecific protein (other)
chain: B1 chain with A53R, R101V
notes: as for B1
B28: 3B011 anti-DLL3 trispecific protein (other)
chain: B1 chain with T57A, R101V
notes: as for B1
B29: 3G02 anti-DLL3 trispecific protein (other)
chain: B1 chain with S56R
notes: as for B1
B30: 3A09 anti-DLL3 trispecific protein (other)
chain: B1 chain with T57V, R101T, T105I
notes: as for B1
B31: 3B09 anti-DLL3 trispecific protein (other)
chain: B1 chain with S28H, D54N, R101T, T105A
notes: as for B1
B32: 3C09 anti-DLL3 trispecific protein (other)
chain: B1 chain with D58I
notes: as for B1
B33: 3C01 anti-DLL3 trispecific protein (other)
chain: B1 chain with S30R, D54H, R101S
notes: as for B1
B34: 3D05 anti-DLL3 trispecific protein (other)
chain: B1 chain with S30R, R101T, T102R
notes: as for B1
B35: 3F010 anti-DLL3 trispecific protein (other)
chain: B1 chain with G26Y, F31R, D58V, R101T, Y104N
notes: as for B1
B36: 3A08 anti-DLL3 trispecific protein (other)
chain: B1 chain with S30G, D61R
notes: as for B1
B37: 3G010 anti-DLL3 trispecific protein (other)
chain: B1 chain with A53V
notes: as for B1
B38: 3E03 anti-DLL3 trispecific protein (other)
chain: B1 chain with S30R, A53G, R101M
notes: as for B1
B39: 3B05 anti-DLL3 trispecific protein (other)
chain: B1 chain with A23V, S30K, D58T, R101T, Y104R
notes: as for B1
B40: 3D01 anti-DLL3 trispecific protein (other)
chain: B1 chain with A53R, R101I
notes: as for B1
B41: 3C08 anti-DLL3 trispecific protein (other)
chain: B1 chain with S30K, A53L, R101T, T102G
notes: as for B1
B42: 3G011 anti-DLL3 trispecific protein (other)
chain: B1 chain with S28R, D58G, R101A
notes: as for B1
B43: 3G08 anti-DLL3 trispecific protein (other)
chain: B1 chain with S28R, A53K, R101T, Y104V
notes: as for B1
B44: 3E09 anti-DLL3 trispecific protein (other)
chain: B1 chain with S30R, A53R, R101S
notes: as for B1
B45: 3A04 anti-DLL3 trispecific protein (other)
chain: B1 chain with S28Q, A53R, R101T, T105I
notes: as for B1
B46: 3D02 anti-DLL3 trispecific protein (other)
chain: B1 chain with S30R, A53R, R101I
notes: as for B1
B47: 3D09 anti-DLL3 trispecific protein (other)
chain: B1 chain with F31R, D54N, D58T, R101T, T105R
notes: as for B1
B48: 3A06 anti-DLL3 trispecific protein (other)
chain: B1 chain with S21R, S28K, I60V, R101T, T102R
notes: as for B1
B49: 3G07 anti-DLL3 trispecific protein (other)
chain: B1 chain with A53R, R101T, T102S
notes: as for B1
B50: 3C03 anti-DLL3 trispecific protein (other)
chain: B1 chain with S30R, A53R, D58V, R101T, Y104G
notes: as for B1
B51: 3E02 anti-DLL3 trispecific protein (other)
chain: B1 chain with S28G, S30R, A53P, R101T, T102R
notes: as for B1
B52: 3A05 anti-DLL3 trispecific protein (other)
chain: B1 chain with A53E, D54A
notes: as for B1
B53: 3E011 anti-DLL3 trispecific protein (other)
chain: B1 chain with S28K, A53R, R101T, Y106F
notes: as for B1
B54: 3E01 anti-DLL3 trispecific protein (other)
chain: B1 chain with S30K, D58M, R101H
notes: as for B1
B55: 3G04 anti-DLL3 trispecific protein (other)
chain: B1 chain with A23V, S27T, D58I, R101T, Y104R
notes: as for B1
B56: 2H010 anti-DLL3 trispecific protein (other)
chain: EVQLVESGGGLVQPGGSLTLSCVASGSTSSINAMGWYRRAPGKQRELAAGISSDGSKLYADSVKGRFTISRDNAKNSVYLQMNSLRAEDTAVYYCYYFRTVSGSSMRYWGQGTLVTVSS
notes: as for B1
B57: 2H011 anti-DLL3 trispecific protein (other)
chain: B56 chain with S30R, A48V, L58V, T100R
notes: as for B1

The binders below were run against T1, biotinylated human DLL3 protein … (assay: Octet BLI, single 50 nM).
Outline: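 Read-out is binding affinity to human DLL3. Conditioned medium containing a known amount of each trispecific protein was run against the immobilised biotinylated DLL3 fusion.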
For B1, the Kd was 13 nM.
B2 was tested, and the Kd was 11 nM.
For B3, the Kd was 12 nM.
In the case of B4, the Kd is reported as 16 nM.
Work on B5 yielded a Kd of 14 nM.
B6 showed a Kd of 11 nM.
Work on B7 yielded a Kd of 17 nM.
B8 gave a Kd of 14 nM.
Binder B9 has a Kd of 10 nM.
Binder B10 has a Kd of 5.3 nM.
B11 gave a Kd of 12 nM.
B12 showed a Kd of 7.1 nM.
In the case of B13, the Kd is reported as 7.5 nM.
B14 was tested, and the Kd was 9.9 nM.
For B15, the Kd was 7.3 nM.
B16 showed a Kd of 12 nM.
B17 showed a Kd of 7.3 nM.
For B18, the Kd was 8.2 nM.
For B19, the Kd was 12 nM.
B20 was tested, and the Kd was 10 nM.
For B21, the Kd was 8.2 nM.
B22 gave a Kd of 12 nM.
With B23 the Kd was 14 nM.
For B24, the Kd was 9.1 nM.
B25 showed a Kd of 24 nM.
B26 showed a Kd of 15 nM.
B27 was tested, and the Kd was 12 nM.
Work on B28 yielded a Kd of 9 nM.
For B29, the Kd was 20 nM.
B30 gave a Kd of 6.3 nM.
B31 gave a Kd of 20 nM.
B32 gave a Kd of 7.8 nM.
Binder B33 has a Kd of 14 nM.
B34 gave a Kd of 16 nM.
B35 showed a Kd of 4.4 nM.
Binder B36 has a Kd of 12 nM.
B37 gave a Kd of 6.9 nM.
For B38, the Kd was 20 nM.
In the case of B39, the Kd is reported as 7.2 nM.
Binder B40 has a Kd of 10 nM.
Work on B41 yielded a Kd of 5.9 nM.
With B42 the Kd was 17 nM.
B43 showed a Kd of 12 nM.
B44 gave a Kd of 10 nM.
Work on B45 yielded a Kd of 9.2 nM.
Binder B46 has a Kd of 12 nM.
Work on B47 yielded a Kd of 32 nM.
B48 gave a Kd of 16 nM.
B49 was tested, and the Kd was 13 nM.
Work on B50 yielded a Kd of 4.9 nM.
B51 showed a Kd of 12 nM.
B52 showed a Kd of 15 nM.
For B53, the Kd was 11 nM.
Binder B54 has a Kd of 16 nM.
B55 showed a Kd of 8.8 nM.
B56 showed a Kd of 6.4 nM.
Work on B57 yielded a Kd of 5 nM.
